Measurements from article PMC11903765, “ARR1 and AHP interactions in the multi-step phosphorelay system” (Frontiers in Plant Science, 2025).

T1: ARR1-REC-GARP (ARR1 residues 38-296), construct for structural studies (Arabidopsis thaliana, UniProt Q940D0 38-296)
T1 construct: ARR1, Arabidopsis thaliana, UniProt Q940D0, residues 38-296: REC domain (38-158), linker (159-235, not visible in the map), GARP motif (236-296); cloned into pMCSG53; TEV protease was not able to cleave the His-tag, so it stayed on the protein; also called ARR1-RG; source: E. coli BL21 Gold, purified (Ni-NTA; then SEC of the complex)
T1 sequence (looked up): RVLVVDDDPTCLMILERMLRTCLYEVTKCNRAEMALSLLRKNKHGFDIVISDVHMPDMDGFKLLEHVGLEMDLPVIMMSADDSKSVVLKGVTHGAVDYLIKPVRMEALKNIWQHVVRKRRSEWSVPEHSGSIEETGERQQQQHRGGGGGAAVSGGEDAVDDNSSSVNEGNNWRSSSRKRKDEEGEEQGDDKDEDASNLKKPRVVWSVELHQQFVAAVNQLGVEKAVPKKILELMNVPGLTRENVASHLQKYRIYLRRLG

T2: biotinylated ARR1-REC-GARP (ARR1 residues 1-296), construct for BLI (Arabidopsis thaliana, UniProt Q940D0 1-296, biotin on the Avi-tag (by co-expressed BirA))
T2 construct: ARR1, Arabidopsis thaliana, UniProt Q940D0, residues 1-296 (REC domain and GARP motif); cloned into pMCSG62, which provides the Avi-tag; The results define ARR1-RG as 38-296; the methods give 1-296 for the BLI construct; also called ARR1-RG; biotinylated variant of ARR1-RG; source: E. coli BL21 Gold, co-expressed with BirA, purified (Ni-NTA)
T2 sequence (looked up): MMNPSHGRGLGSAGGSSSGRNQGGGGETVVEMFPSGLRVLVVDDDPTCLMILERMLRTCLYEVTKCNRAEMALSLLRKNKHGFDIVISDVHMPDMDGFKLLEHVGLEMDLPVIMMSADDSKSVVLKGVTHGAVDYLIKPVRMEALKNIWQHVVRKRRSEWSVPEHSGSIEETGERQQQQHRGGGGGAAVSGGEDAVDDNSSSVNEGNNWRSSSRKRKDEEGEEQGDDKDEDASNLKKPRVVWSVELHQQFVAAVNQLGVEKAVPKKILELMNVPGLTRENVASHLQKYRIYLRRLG


Legend:
[1] = biological target: biotinylated ARR1-REC-GARP (ARR1 residues 1-296), construct for BLI (Arabidopsis thaliana) (UniProt Q940D0); assay: BLI; biotinylated ARR1-REC-GARP immobilised on Octet SA biosensors, AHPs as analytes; fit of the binding kinetics; 20 mM HEPES/NaOH pH 7.0, 50 mM NaCl, 50 mM KCl, 0.5 mM TCEP, 0.5% BSA, 0.05% Tween 20; 25°C
[2] = biological target: biotinylated ARR1-REC-GARP (ARR1 residues 1-296), construct for BLI (Arabidopsis thaliana) (UniProt Q940D0); assay: BLI; biotinylated ARR1-REC-GARP immobilised on Octet SA biosensors, AHPs as analytes; fit of the steady-state data; 20 mM HEPES/NaOH pH 7.0, 50 mM NaCl, 50 mM KCl, 0.5 mM TCEP, 0.5% BSA, 0.05% Tween 20; 25°C
[3] = biological target: T1, ARR1-REC-GARP (ARR1 residues 38-296), …; assay: crystal structure; complex from mixing 1 ARR1 : 1.5 AHP1, purified by SEC; crystals from Morpheus G11, pH 8.5, 32.5 mg/mL; 2.9 Å; two complexes in the asymmetric unit; details: both partners purified
[4] = biological target: T2, biotinylated ARR1-REC-GARP (ARR1 …); assay: BLI; biotinylated ARR1-REC-GARP immobilised on Octet SA biosensors, AHPs as analytes; fit of the binding kinetics; 20 mM HEPES/NaOH pH 7.0, 50 mM NaCl, 50 mM KCl, 0.5 mM TCEP, 0.5% BSA, 0.05% Tween 20; 25°C; details: both partners purified
[5] = biological target: T2, biotinylated ARR1-REC-GARP (ARR1 …); assay: BLI; biotinylated ARR1-REC-GARP immobilised on Octet SA biosensors, AHPs as analytes; fit of the steady-state data; 20 mM HEPES/NaOH pH 7.0, 50 mM NaCl, 50 mM KCl, 0.5 mM TCEP, 0.5% BSA, 0.05% Tween 20; 25°C; details: both partners purified

| Molecule | Kd [1] | koff [1] | kon [1] | Kd [2] | stoichiometry N [3] | Kd [4] | koff [4] | kon [4] | Kd [5] |
| --- | --- | --- | --- | --- | --- | --- | --- | --- | --- |
| AHP3 (Arabidopsis histidine-containing phosphotransfer protein 3) (natural protein) | 174 nM | 0.0917 s⁻¹ | 522000 M⁻¹ s⁻¹ | 175 nM |  |  |  |  |  |
| AHP4 (Arabidopsis histidine-containing phosphotransfer protein 4) (natural protein) | 166 nM | 0.06 s⁻¹ | 360000 M⁻¹ s⁻¹ | 170 nM |  |  |  |  |  |
| AHP1 (Arabidopsis histidine-containing phosphotransfer protein 1), full length (natural protein, Arabidopsis thaliana, UniProt Q9ZNV9 1-154, looked up, AHP1, Arabidopsis thaliana, UniProt Q9ZNV9, full-length protein cloned from A. thaliana cDNA into pMCSG53; Unphosphorylated; source: E. coli BL21 Gold, purified (Ni-NTA, TEV digestion, second Ni-NTA, SEC)) MDLVQKQKSLQDYTKSLFLEGILDSQFLQLQQLQDESNPDFVSQVVTLFFQDSDRILNDLSLSLDQQVVDFKKVDPHVHQLKGSSSSIGAQRVKNACVVFRSFCEQQNVEACHRCLQQVKQEYYLVKNRLETLFKLEQQIVASGGMIPAVELGF |  |  |  |  | 1 | 94 nM | 0.0423 s⁻¹ | 444000 M⁻¹ s⁻¹ | 94 nM |

The next lines start with the values.

| Kd [1] | koff [1] | kon [1] | Kd [2] | stoichiometry N [3] | Kd [4] | koff [4] | kon [4] | Kd [5] | Molecule |
| --- | --- | --- | --- | --- | --- | --- | --- | --- | --- |
| 160 nM | 0.0913 s⁻¹ | 573000 M⁻¹ s⁻¹ | 160 nM |  |  |  |  |  | AHP2 (Arabidopsis histidine-containing phosphotransfer protein 2) (natural protein) |
| 152 nM | 0.089 s⁻¹ | 588000 M⁻¹ s⁻¹ | 150 nM |  |  |  |  |  | AHP5 (Arabidopsis histidine-containing phosphotransfer protein 5) (natural protein) |
